{
  "source": "IntAct's records for PubMed 19037316",
  "parents": {"B1": {"name": "Gibberellin receptor GID1 (Oryza sativa subsp. japonica (Rice)), Q6L545 (parent)", "chain": "MAGSDEVNRNECKTVVPLHTWVLISNFKLSYNILRRADGTFERDLGEYLDRRVPANARPLEGVSSFDHIIDQSVGLEVRIYRAAAEGDAEEGAAAVTRPILEFLTDAPAAEPFPVIIFFHGGSFVHSSASSTIYDSLCRRFVKLSKGVVVSVNYRRAPEHRYPCAYDDGWTALKWVMSQPFMRSGGDAQARVFLSGDSSGGNIAHHVAVRAADEGVKVCGNILLNAMFGGTERTESERRLDGKYFVTLQDRDWYWKAYLPEDADRDHPACNPFGPNGRRLGGLPFAKSLIIVSGLDLTCDRQLAYADALREDGHHVKVVQCENATVGFYLLPNTVHYHEVMEEISDFLNANLYY", "partner": "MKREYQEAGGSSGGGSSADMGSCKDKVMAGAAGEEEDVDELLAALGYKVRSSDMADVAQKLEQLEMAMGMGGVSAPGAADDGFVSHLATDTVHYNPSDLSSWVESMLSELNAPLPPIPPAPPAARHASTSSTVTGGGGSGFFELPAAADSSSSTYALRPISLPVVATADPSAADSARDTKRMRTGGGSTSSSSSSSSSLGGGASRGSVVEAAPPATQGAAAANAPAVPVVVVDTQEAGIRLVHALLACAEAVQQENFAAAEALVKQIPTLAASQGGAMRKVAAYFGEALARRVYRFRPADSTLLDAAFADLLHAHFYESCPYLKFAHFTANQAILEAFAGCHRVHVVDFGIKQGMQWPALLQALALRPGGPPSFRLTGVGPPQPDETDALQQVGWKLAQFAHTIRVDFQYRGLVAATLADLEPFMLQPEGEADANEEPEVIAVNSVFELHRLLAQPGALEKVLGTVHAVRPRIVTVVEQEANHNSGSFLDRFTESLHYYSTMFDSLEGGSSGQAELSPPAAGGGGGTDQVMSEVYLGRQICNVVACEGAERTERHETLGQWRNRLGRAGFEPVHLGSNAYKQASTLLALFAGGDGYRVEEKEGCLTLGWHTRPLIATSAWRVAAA"}},
  "data": [
    {"variants_of": "B1", "details": "with slr1_orysj SLR1, Q7G7J6", "values": [
      {"variant": "L18A;W21A;L29A;I33A;L45A;Y48A", "effect of a mutation on the interaction": "disrupting interaction"}
    ]}
  ]
}
